*1 amine or outer side, *2 acyl side, *3 side chain or, on linkers, in order; H or OH if unused. Bridges are numbered along the chain shown (N, C = ends). Primed or numbered codes have the meaning given here. Where no end group is shown, it is not given here. [ ]: non-standard residue; d: D form. Sar10″ = ten sarcosine residues, CN(CC(=O)N(C)CC(=O)N(C)CC(=O)N(C)CC(=O)N(C)CC(=O)[*:2])C(=O)CN(C)C(=O)CN(C)C(=O)CN(C)C(=O)CN(C)C(=O)CN(C)[*:1]; TATA = O=C(CC[*:1])N1CN(C(=O)CC[*:2])CN(C(=O)CC[*:3])C1; Hyp = O=C(O)[C@@H]1C[C@@H](O)CN1; hArg = N=C(N)NCCCC[C@H](N)C(=O)O; βAla = NCCC(=O)O
B1: BCY6136 (peptide)
peptide: [βAla][Sar10″]A[hArg]DC[Hyp]LVNPLCLHP[dD]W[hArg]C-NH2
modifications: linker 6-13-20 via TATA (inferred); also: conjugated to ValCit-MMAE linker/toxin, attachment site not given here
notes: also called BT5528
B2: BCY6173 (peptide)
peptide: [βAla][Sar10″]A[hArg]DC[Hyp]LVNPLCLHP[dD]W[hArg]C-NH2
modifications: linker 6-13-20 via TATA (inferred); also: conjugated to DM1-SS(SO3H)- linker/toxin, attachment site not given here

Target: T1, Rat EphA2, biotinylated (in house) (Rat)
T1 construct: SPR target captured on streptavidin; also called Rat EphA2 (SPR)
Assay: SPR (Biacore 3000), biotinylated rat EphA2 on streptavidin, 1:1 model

T1 sequence (Q03145 other isoform, or with tags, fused parts or gaps): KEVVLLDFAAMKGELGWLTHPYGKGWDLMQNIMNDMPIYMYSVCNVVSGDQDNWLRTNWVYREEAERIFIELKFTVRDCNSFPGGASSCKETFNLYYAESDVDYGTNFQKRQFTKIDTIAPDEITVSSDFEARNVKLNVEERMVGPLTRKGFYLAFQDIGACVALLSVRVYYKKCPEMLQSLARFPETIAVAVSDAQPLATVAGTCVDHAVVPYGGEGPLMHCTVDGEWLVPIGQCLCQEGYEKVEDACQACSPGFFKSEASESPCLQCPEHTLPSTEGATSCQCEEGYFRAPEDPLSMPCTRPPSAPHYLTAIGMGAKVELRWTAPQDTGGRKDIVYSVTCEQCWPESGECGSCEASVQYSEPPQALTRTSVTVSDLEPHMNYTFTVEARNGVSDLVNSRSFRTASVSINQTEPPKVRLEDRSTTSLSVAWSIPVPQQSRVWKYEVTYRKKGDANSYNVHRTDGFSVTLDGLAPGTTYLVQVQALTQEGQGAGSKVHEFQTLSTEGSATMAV

Binder | Kd [nM] | t1/2 [min]
B1 | 2.96 | 12.6
B2 | 1.1 | 12

Source: patent US20230144799A1 (published 2023)
